System: Escherichia coli TOP10
Assay: shrunken log2 fold change of peptide-encoding DNA abundance (4.5 h post-induction vs induction); higher = less antimicrobial activity (less host growth inhibition)
Details: time post-induction: 4.5 h; library: site-saturation at positions 5, 18, 19, 20
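Also: peptides expressed intracellularly from a pBAD plasmid library in pooled LB shake-flask culture, induced with 0.3% L-arabinose, DNA abundance read by NGS, three biological replicates, DESeq2 with apeglm shrinkage.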

Row | Sequence | shrunken log2 fold change
1 | RRIRKRPPRLPRPRPRPQRQPRP | 0.265
2 | RRIRKRPPRLPRPRPRPQVLPRP | -0.165
3 | RRIRKRPPRLPRPRPRPQVRPRP | -0.117
4 | RRIRKRPPRLPRPRPRPQWHPRP | 0.104
5 | RRIRKRPPRLPRPRPRPQWLPRP | 0.0628
6 | RRIRKRPPRLPRPRPRPRACPRP | 0.474
7 | RRIRKRPPRLPRPRPRPRALPRP | 0.396
8 | RRIRKRPPRLPRPRPRPRCCPRP | 0.491
9 | RRIRKRPPRLPRPRPRPRCEPRP | 0.568
10 | RRIRKRPPRLPRPRPRPRCMPRP | 0.401
11 | RRIRKRPPRLPRPRPRPRCNPRP | 0.196
12 | RRIRKRPPRLPRPRPRPRCVPRP | 0.276
13 | RRIRKRPPRLPRPRPRPRDVPRP | 0.316
14 | RRIRKRPPRLPRPRPRPREDPRP | 0.346
15 | RRIRKRPPRLPRPRPRPREFPRP | 0.607
16 | RRIRKRPPRLPRPRPRPRERPRP | 0.358
17 | RRIRKRPPRLPRPRPRPRHKPRP | 0.458
18 | RRIRKRPPRLPRPRPRPRHWPRP | 0.0398
19 | RRIRKRPPRLPRPRPRPRICPRP | 0.0539
20 | RRIRKRPPRLPRPRPRPRIIPRP | 0.081
21 | RRIRKRPPRLPRPRPRPRMYPRP | 0.155
22 | RRIRKRPPRLPRPRPRPRNFPRP | 0.731
23 | RRIRKRPPRLPRPRPRPRNPPRP | 0.358
24 | RRIRKRPPRLPRPRPRPRPCPRP | 0.365
25 | RRIRKRPPRLPRPRPRPRQFPRP | 0.192

Row | Sequence | shrunken log2 fold change
26 | RRIRKRPPRLPRPRPRPRQGPRP | 0.708
27 | RRIRKRPPRLPRPRPRPRSHPRP | 0.38
28 | RRIRKRPPRLPRPRPRPRSPPRP | 0.6
29 | RRIRKRPPRLPRPRPRPRTDPRP | 0.206
30 | RRIRKRPPRLPRPRPRPRVFPRP | 0.701
31 | RRIRKRPPRLPRPRPRPRVLPRP | 0.498
32 | RRIRKRPPRLPRPRPRPRVMPRP | 0.436
33 | RRIRKRPPRLPRPRPRPRWSPRP | 0.559
34 | RRIRKRPPRLPRPRPRPSATPRP | 0.368
35 | RRIRKRPPRLPRPRPRPSAYPRP | -0.277
36 | RRIRKRPPRLPRPRPRPSCWPRP | 0.244
37 | RRIRKRPPRLPRPRPRPSDKPRP | -0.41
38 | RRIRKRPPRLPRPRPRPSENPRP | 0.101
39 | RRIRKRPPRLPRPRPRPSEVPRP | -0.524
40 | RRIRKRPPRLPRPRPRPSGVPRP | 0.005
41 | RRIRKRPPRLPRPRPRPSIFPRP | -0.0205
42 | RRIRKRPPRLPRPRPRPSIGPRP | -0.0755
43 | RRIRKRPPRLPRPRPRPSIKPRP | -0.004
44 | RRIRKRPPRLPRPRPRPSMWPRP | 1.63
45 | RRIRKRPPRLPRPRPRPSNAPRP | -0.154
46 | RRIRKRPPRLPRPRPRPSNFPRP | -0.198
47 | RRIRKRPPRLPRPRPRPSQAPRP | -0.0142
48 | RRIRKRPPRLPRPRPRPSRHPRP | 0.0967
49 | RRIRKRPPRLPRPRPRPSSGPRP | -0.0282
50 | RRIRKRPPRLPRPRPRPSSIPRP | -0.0636

Row | Sequence | shrunken log2 fold change
51 | RRIRKRPPRLPRPRPRPSSKPRP | -0.181
52 | RRIRKRPPRLPRPRPRPSTAPRP | -0.177
53 | RRIRKRPPRLPRPRPRPSTNPRP | 0.0826
54 | RRIRKRPPRLPRPRPRPSVLPRP | 0.0575
55 | RRIRKRPPRLPRPRPRPSYCPRP | -0.251
56 | RRIRKRPPRLPRPRPRPSYIPRP | -0.136
57 | RRIRKRPPRLPRPRPRPTAFPRP | 0.355
58 | RRIRKRPPRLPRPRPRPTAVPRP | 0.284
59 | RRIRKRPPRLPRPRPRPTAWPRP | 1.13
60 | RRIRKRPPRLPRPRPRPTDKPRP | 0.208
61 | RRIRKRPPRLPRPRPRPTDMPRP | -0.124
62 | RRIRKRPPRLPRPRPRPTEMPRP | 0.25
63 | RRIRKRPPRLPRPRPRPTEPPRP | -0.0305
64 | RRIRKRPPRLPRPRPRPTFHPRP | 0.136
65 | RRIRKRPPRLPRPRPRPTGRPRP | 0.609
66 | RRIRKRPPRLPRPRPRPTGVPRP | 0.00874
67 | RRIRKRPPRLPRPRPRPTHDPRP | -0.101
68 | RRIRKRPPRLPRPRPRPTHFPRP | -0.105
69 | RRIRKRPPRLPRPRPRPTHGPRP | 0.547
70 | RRIRKRPPRLPRPRPRPTIMPRP | -0.0223
71 | RRIRKRPPRLPRPRPRPTKCPRP | -0.184
72 | RRIRKRPPRLPRPRPRPTLAPRP | 1.19
73 | RRIRKRPPRLPRPRPRPTLEPRP | 0.132
74 | RRIRKRPPRLPRPRPRPTLIPRP | -0.0752
75 | RRIRKRPPRLPRPRPRPTLMPRP | 0.758

Row | Sequence | shrunken log2 fold change
76 | RRIRKRPPRLPRPRPRPTMPPRP | 0.282
77 | RRIRKRPPRLPRPRPRPTMSPRP | 0.22
78 | RRIRKRPPRLPRPRPRPTMTPRP | 0.608
79 | RRIRKRPPRLPRPRPRPTMYPRP | -0.0949
80 | RRIRKRPPRLPRPRPRPTNFPRP | 0.111
81 | RRIRKRPPRLPRPRPRPTNNPRP | -0.2
82 | RRIRKRPPRLPRPRPRPTNVPRP | 0.221
83 | RRIRKRPPRLPRPRPRPTPNPRP | 0.553
84 | RRIRKRPPRLPRPRPRPTQGPRP | 0.909
85 | RRIRKRPPRLPRPRPRPTRDPRP | 0.753
86 | RRIRKRPPRLPRPRPRPTRRPRP | 0.964
87 | RRIRKRPPRLPRPRPRPTTCPRP | 0.273
88 | RRIRKRPPRLPRPRPRPTVDPRP | -0.108
89 | RRIRKRPPRLPRPRPRPTVMPRP | 0.247
90 | RRIRKRPPRLPRPRPRPVCLPRP | 0.0948
91 | RRIRKRPPRLPRPRPRPVCQPRP | 0.436
92 | RRIRKRPPRLPRPRPRPVDGPRP | 0.344
93 | RRIRKRPPRLPRPRPRPVDPPRP | 0.417
94 | RRIRKRPPRLPRPRPRPVEYPRP | 0.0119
95 | RRIRKRPPRLPRPRPRPVFNPRP | 0.117
96 | RRIRKRPPRLPRPRPRPVGWPRP | 0.897
97 | RRIRKRPPRLPRPRPRPVHVPRP | 0.0513
98 | RRIRKRPPRLPRPRPRPVIDPRP | 1.29
99 | RRIRKRPPRLPRPRPRPVIKPRP | 0.0845
100 | RRIRKRPPRLPRPRPRPVIYPRP | -0.0353

Row | Sequence | shrunken log2 fold change
101 | RRIRKRPPRLPRPRPRPVLRPRP | 0.0359
102 | RRIRKRPPRLPRPRPRPVMNPRP | -0.0155
103 | RRIRKRPPRLPRPRPRPVNAPRP | 0.025
104 | RRIRKRPPRLPRPRPRPVPFPRP | -0.101
105 | RRIRKRPPRLPRPRPRPVPLPRP | 0.185
106 | RRIRKRPPRLPRPRPRPVPPPRP | 1.85
107 | RRIRKRPPRLPRPRPRPVPYPRP | -0.0558
108 | RRIRKRPPRLPRPRPRPVRSPRP | 2.24
109 | RRIRKRPPRLPRPRPRPVTDPRP | -0.0127
110 | RRIRKRPPRLPRPRPRPVTTPRP | 0.0429
111 | RRIRKRPPRLPRPRPRPVVLPRP | -0.0253
112 | RRIRKRPPRLPRPRPRPVWEPRP | 0.391
113 | RRIRKRPPRLPRPRPRPVWHPRP | 0.0861
114 | RRIRKRPPRLPRPRPRPVWMPRP | 0.136
115 | RRIRKRPPRLPRPRPRPVYAPRP | -0.0576
116 | RRIRKRPPRLPRPRPRPVYLPRP | -0.326
117 | RRIRKRPPRLPRPRPRPWCQPRP | -0.0158
118 | RRIRKRPPRLPRPRPRPWCWPRP | 0.357
119 | RRIRKRPPRLPRPRPRPWDIPRP | -0.0322
120 | RRIRKRPPRLPRPRPRPWDLPRP | -0.136
121 | RRIRKRPPRLPRPRPRPWDVPRP | 0.0155
122 | RRIRKRPPRLPRPRPRPWEKPRP | -0.00969
123 | RRIRKRPPRLPRPRPRPWETPRP | 0.696
124 | RRIRKRPPRLPRPRPRPWFGPRP | 0.0558
125 | RRIRKRPPRLPRPRPRPWGDPRP | 0.499

Row | Sequence | shrunken log2 fold change
126 | RRIRKRPPRLPRPRPRPWHDPRP | -0.406
127 | RRIRKRPPRLPRPRPRPWHEPRP | -0.0363
128 | RRIRKRPPRLPRPRPRPWHNPRP | -0.124
129 | RRIRKRPPRLPRPRPRPWHQPRP | -0.0165
130 | RRIRKRPPRLPRPRPRPWIAPRP | 0.285
131 | RRIRKRPPRLPRPRPRPWIQPRP | -0.01
132 | RRIRKRPPRLPRPRPRPWKAPRP | 0.49
133 | RRIRKRPPRLPRPRPRPWKYPRP | -0.067
134 | RRIRKRPPRLPRPRPRPWLYPRP | 0.00941
135 | RRIRKRPPRLPRPRPRPWNGPRP | -0.0782
136 | RRIRKRPPRLPRPRPRPWPGPRP | 0.342
137 | RRIRKRPPRLPRPRPRPWPKPRP | 0.274
138 | RRIRKRPPRLPRPRPRPWREPRP | 0.184
139 | RRIRKRPPRLPRPRPRPWWCPRP | 0.0624
140 | RRIRKRPPRLPRPRPRPWWTPRP | 0.0991
141 | RRIRKRPPRLPRPRPRPWYLPRP | 0.0253
142 | RRIRKRPPRLPRPRPRPYAIPRP | 0.0303
143 | RRIRKRPPRLPRPRPRPYCGPRP | 0.0176
144 | RRIRKRPPRLPRPRPRPYCRPRP | -0.214
145 | RRIRKRPPRLPRPRPRPYEKPRP | -0.0121
146 | RRIRKRPPRLPRPRPRPYEMPRP | 0.138
147 | RRIRKRPPRLPRPRPRPYFWPRP | -0.0468
148 | RRIRKRPPRLPRPRPRPYGMPRP | -0.284
149 | RRIRKRPPRLPRPRPRPYHDPRP | 0.035
150 | RRIRKRPPRLPRPRPRPYHNPRP | -0.227
